The test system of series [1] is CO[C@@]1(NC(=O)Cc2cccs2)C(=O)N2C(C(=O)O)=C(COC(N)=O)CS[C@@H]21. Put plainly: purified protein. It is filed as biochemical, Klebsiella pneumoniae. The settings on record: Zn2+.
Series [2] concerns CC(C)(O/N=C(\C(=O)N[C@@H]1C(=O)N2C(C(=O)[O-])=C(C[n+]3ccccc3)CS[C@H]12)c1csc(N)n1)C(=O)O. Put plainly: purified protein. The class given is biochemical, Klebsiella pneumoniae. The note with it: Zn2+.
Series [3] relates to CCN1CCN(C(=O)N[C@@H](C(=O)N[C@@H]2C(=O)N3[C@@H]2SC(C)(C)[C@@H]3C(=O)O)c2ccccc2)C(=O)C1=O. Put plainly: purified protein. The note with it: Zn2+. The class given is biochemical, Klebsiella pneumoniae.
The test system of series [4] is C[C@@H](O)[C@H]1C(=O)N2C(C(=O)[O-])=C(SC3Cn4cnc[n+]4C3)[C@H](C)[C@H]12. Briefly: purified protein. The class given is biochemical, Klebsiella pneumoniae. The note with it: Zn2+.
Series [5] concerns CC1(C)S[C@@H]2[C@H](NC(=O)Cc3ccccc3)C(=O)N2[C@H]1C(=O)O. Briefly: purified protein. It is filed as biochemical, Klebsiella pneumoniae. The settings on record: Zn2+.
For series [6], the system named is CO/N=C(\C(=O)N[C@@H]1C(=O)N2C(C(=O)O)=C(COC(C)=O)CS[C@H]12)c1csc(N)n1. Briefly: purified protein. The note with it: Zn2+. The class given is biochemical, Klebsiella pneumoniae.
In series [7] the test system is C[C@@H](O)[C@H]1C(=O)N2C(C(=O)O)=C(S[C@@H]3CN[C@H](C(=O)N(C)C)C3)[C@H](C)[C@H]12. Put plainly: purified protein. It is filed as biochemical, Klebsiella pneumoniae. The settings on record: Zn2+.
Series [8] deals with T1, New Delhi metallo-β-lactamase-1 (NDM-1) (Klebsiella pneumoniae, UniProt C7C422).
T1 construct: gene blaNDM-1; native (no fusion or tag) NDM-1
T1 sequence (C7C422 29-270 limits assumed): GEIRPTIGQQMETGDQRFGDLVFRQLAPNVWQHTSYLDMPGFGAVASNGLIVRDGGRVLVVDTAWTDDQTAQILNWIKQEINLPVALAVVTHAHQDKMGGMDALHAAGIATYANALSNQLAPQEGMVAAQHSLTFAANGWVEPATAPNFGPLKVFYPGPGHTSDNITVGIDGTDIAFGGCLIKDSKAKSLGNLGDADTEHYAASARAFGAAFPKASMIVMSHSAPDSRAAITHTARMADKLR
Briefly: initial hydrolysis rate of […] substrate by purified enzyme at varied ZnSO4. The class given is biochemical.

Two compounds from article PMC3625156, “Biochemical Characteristics of New Delhi Metallo-β-Lactamase-1 Show Unexpected Difference to Other MBLs” (PLoS ONE, 2013) can be followed below.

With “New Delhi metallo-β-lactamase-1 (NDM-1) (Klebsiella pneumoniae)”, the Km – broadly, the substrate concentration at which the rate is half of its maximum – was determined as 63 µM in series [1]; 74 µM in series [2]; 69 µM in series [3]; 155 µM in series [4]; 103 µM in series [5]; 43 µM in series [6]. In addition, in series [7], the Km is 42 µM. The kcat (usually the number of substrate molecules converted per active site and unit of time at saturation) in series [1] is 38.3 s⁻¹; in series [2], 60.9 s⁻¹; in series [3] it was 8.3 s⁻¹; in series [4] it was 106 s⁻¹; in series [5] it was 27.5 s⁻¹; in series [6] it was 31.5 s⁻¹. For the same compound, the kcat in series [7] came to 30.8 s⁻¹. Moreover, the kcat/Km (usually the turnover number divided by the Michaelis constant) in series [1] turned out to be 610000 M⁻¹ s⁻¹; in series [2] it was 830000 M⁻¹ s⁻¹; in series [3], 120000 M⁻¹ s⁻¹; in series [4], 680000 M⁻¹ s⁻¹; in series [5], 270000 M⁻¹ s⁻¹; in series [6], 740000 M⁻¹ s⁻¹. The kcat/Km in series [7] was determined as 730000 M⁻¹ s⁻¹.

Regarding `CO/N=C(\C(=O)N[C@@H]1C(=O)N2C(C(=O)[O-])=C(C[N+]3(C)CCCC3)CS[C@H]12)c1csc(N)n1` [cefepime], in series [8], the “initial hydrolysis rate of 0.5 mM substrate by purified enzyme at varied ZnSO4” value was “The hydrolysis rates of cephem (ceftazidime and cefepime) were found to be very sensitive to the ZnSO4 concentration”.
